US20120094898A1, “PEPTIDE DERIVATIVE” (Takeda Pharmaceutical Company Limited, priority 2010, published 2012)
Non-standard residues stand in square brackets, D forms with d. Primed or numbered codes have the meaning given here. *: point of attachment. Acetyl(2-(piperazin-1-yl)) = O=C(CN1CCNCC1)*; 2Nal = N[C@@H](Cc1ccc2ccccc2c1)C(=O)O; Pic(4) = not defined here; NMeA = CN[C@@H](C)C(=O)O; Ahx = NCCCCCC(=O)O

How the values were obtained:
male C57BL/6J mice = assay: Subcutaneous administration test in mice (anorectic activity, food intake); type: in vivo; details: 600 nmol/kg/day subcutaneous, food intake 1 day after initiation of administration, vs solvent control
Procedure: Subcutaneous Administration Test in Mice Anorectic activity of the test compounds was evaluated by the following method. Each of the test compounds was dissolved in a solvent (physiological saline), and an amount of 600 nmol/kg/day was used. An amount of 2 mL/Kg of an administration liquid obtained by dissolving each test compound in physiological saline was subcutaneously administered to the back of 9- to 10-week-old male C57BL/6J mice (CLEA Japan, Inc.) (at 25° C., having free access to food and water, 12 hours of light period and 12 hours of dark period). After the administration, the mice were returned to breeding cages (individual feeding), pre-weighed food was given, and the food intake 1 day after the initiation of the administration was measured. The food intake was calculated by subtracting the weight of the food remaining from the weight of the food given on the day the administration was initiated. Based on the calculated food intake, the anorectic ratio (%) of each test compound was calculated using the following formula. […] The group where only the solvent was administered as described above was used as a control group. Food Intake Inhibition (%): {(food intake of the control group−food intake of a test compound administration group)/food intake of the control group}×100

human NMUR1 = target: T1, human NMUR1 (Homo sapiens, UniProt Q9HB89); assay: Ca influx assay using CHO cells expressing human NMUR1; type: cell-based; details: CHO cells stably expressing human NMUR1; intracellular Ca elevation, FLIPR Tetra; relative to 1 μM porcine NMU-8; read-out: hNMUR1 EC50
T1 construct: expressed in transfected cells
T1 sequence (Q9HB89 1-426): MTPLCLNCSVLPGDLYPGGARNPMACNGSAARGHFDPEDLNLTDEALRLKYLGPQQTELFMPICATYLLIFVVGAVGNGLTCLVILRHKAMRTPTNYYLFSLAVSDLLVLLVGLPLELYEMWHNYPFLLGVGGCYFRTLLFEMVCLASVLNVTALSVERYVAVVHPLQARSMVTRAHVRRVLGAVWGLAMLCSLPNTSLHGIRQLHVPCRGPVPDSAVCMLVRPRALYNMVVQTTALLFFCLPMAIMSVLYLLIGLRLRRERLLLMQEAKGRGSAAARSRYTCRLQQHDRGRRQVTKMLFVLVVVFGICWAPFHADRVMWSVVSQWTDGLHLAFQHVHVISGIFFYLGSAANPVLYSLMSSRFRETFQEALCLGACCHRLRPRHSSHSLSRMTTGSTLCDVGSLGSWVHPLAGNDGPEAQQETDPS
Procedure: (§1) Ca Influx Assay Using CHO Cells Expressing Human NMUR1 or NMUR2
(§2) CHO cells stably expressing human NMUR1 or NMUR2 (J Biol Chem 275(28), pp. 21068-21074 (2000); and J Biol Chem 275(38), pp. 29528-29532 (2000)) were seeded onto a 384-well black/clear plate (Becton Dickinson) (10,000 cells per well) using nucleic acid-free MEM-α medium (Nikken Bio Medical Laboratory) containing 10% dialyzed blood serum (Gemini Bio Products) and 50 μg/mL gentamycin (Invitrogen), and cultured overnight in 5% carbon dioxide at 37° C. Then, after removal of the medium, the cells were loaded with Calcium Kit-Fluo 4 (Dojindo) containing 0.1% fatty acid-free BSA (Wako) at 37° C. (for 15 minutes). Further, test compounds at each concentration, as well as 1 μmol/L porcine NMU-8 (BACHEM) as a control group, were added to the cells, and an elevation of intracellular Ca concentration was monitored for 3 minutes using a FLIPR Tetra system (Molecular Devices). The agonist activity (%) of each of the test compounds for NMUR was calculated using the following formula: […]
(§3) wherein W represents a fluorescence value based on the intracellular Ca concentration in cells to which each test compound was added; X represents a fluorescence value based on the intracellular Ca concentration in cells to which only 0.1% DMSO was added; and Y represents a fluorescence value based on the intracellular Ca concentration in cells to which 1 μM porcine NMU-8 was added. The EC50 value of each test compound was calculated using Prism 5 (GraphPad).

human NMUR2 = target: T2, human NMUR2 (Homo sapiens, UniProt Q9GZQ4); assay: Ca influx assay using CHO cells expressing human NMUR2; type: cell-based; details: CHO cells stably expressing human NMUR2; intracellular Ca elevation, FLIPR Tetra; relative to 1 μM porcine NMU-8; read-out: hNMUR2 EC50
T2 construct: expressed in transfected cells
T2 sequence (Q9GZQ4 whole entry): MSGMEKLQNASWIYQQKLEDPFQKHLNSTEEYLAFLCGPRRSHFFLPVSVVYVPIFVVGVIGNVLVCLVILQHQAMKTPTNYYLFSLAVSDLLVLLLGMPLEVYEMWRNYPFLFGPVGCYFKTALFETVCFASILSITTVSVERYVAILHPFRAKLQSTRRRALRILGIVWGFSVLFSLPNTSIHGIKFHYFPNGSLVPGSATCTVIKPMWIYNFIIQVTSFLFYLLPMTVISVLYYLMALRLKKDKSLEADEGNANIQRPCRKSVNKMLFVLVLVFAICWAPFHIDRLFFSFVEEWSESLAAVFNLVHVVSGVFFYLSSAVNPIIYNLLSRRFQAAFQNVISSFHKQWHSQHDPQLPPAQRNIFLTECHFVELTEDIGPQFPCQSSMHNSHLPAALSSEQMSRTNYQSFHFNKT
Procedure: as §1, §2, §3

cynomolgus monkeys = assay: Single subcutaneous administration test in monkeys (emetic response); type: in vivo
Procedure: Single Subcutaneous Administration Test in Monkeys
The emetic response induced by the test compounds was evaluated by the following method.
The test compound C was dissolved in physiological saline at a concentration of 1,000 nmol/kg and the test compound D was dissolved in physiological saline at a concentration of 300 nmol/kg, and used separately. An administration liquid obtained by dissolving each test compound in physiological saline was subcutaneously administered to the back of cynomolgus monkeys (2 males and 2 females each, 3 years and 11 months old to 4 years and 4 months old). After the administration, the animals were immediately returned to their individual cages, and videotaped for 10 hours. Vomiting and dry heaves observed during the videotaping were counted. Vomits were counted as the number of instances of vomiting up to 24 hours after the completion of the videotaping.

Row | Substance | Food intake Inhibition (male C57BL/6J mice) [%] | EC50 (human NMUR1) [nM] | EC50 (human NMUR2) [nM] | No. of vomiting (0-24 h) (cynomolgus monkeys; 300 nmol/kg single subcutaneous, n = 4 (2 males, 2 females)) | emetic response (vomiting), result in words (cynomolgus monkeys; single subcutaneous, C 1,000 nmol/kg, D 300 nmol/kg)
1 | PEG20k(AL)-PEG(2)0,Nal(2)2,NMeAla6-NMU-8 ({PEG20k(AL)-PEG(2)}-Y[2Nal]LFR[NMeA]RN-NH2) [PEG20k(AL)-PEG(2)-Tyr-Nal(2)-Leu-Phe-Arg-NMeAla-Arg-Asn-NH2] | 68.6 | > 1000 | 39 |  | 
2 | PEG20k(AL)-Acp0,Nal(2)2,NMeAla6-NMU-8 ({PEG20k(AL)-Ahx}-Y[2Nal]LFR[NMeA]RN-NH2) [Compound G, PEG20k(AL)-Acp-Tyr-Nal(2)-Leu-Phe-Arg-NMeAla-Arg-Asn-NH2] | 71.4 | 170 | 5.9 |  | 
3 | PEG20k(AL)-NpipAc0,Nal(2)2,Ala6-NMU-8 ({PEG20k(AL)-Acetyl(2-(piperazin-1-yl))}-Y[2Nal]LFRARN-NH2) [Compound D, PEG20k(AL)-NpipAc-Tyr-Nal(2)-Leu-Phe-Arg-Ala-Arg-Asn-NH2] | 70.5 | > 1000 | 8.8 | 0 | prevent vomiting
4 | PEG20k(AL)-Pic(4)0,Nal(2)2,NMeAla6-NMU-8 ({PEG20k(AL)-Pic(4)}-Y[2Nal]LFR[NMeA]RN-NH2; reading uncertain) [Compound F, PEG20k(AL)-Pic(4)-Tyr-Nal(2)-Leu-Phe-Arg-NMeAla-Arg-Asn-NH2] | 74.3 | > 1000 | 54 |  | 
